What was measured:
[1] = compound: CC(C)C[C@H](NC(=O)OCC1c2ccccc2-c2ccccc21)C(=O)O; experiment: Non-competitive inhibition of human recombinant-Sialin expressed in HEK293 cells assessed as reduction in [3H]Neu5Ac uptake by measuring Km level at 10 uM incubated for 15 mins by liquid scintillation counting method (reference value: 1.6 +/- 0.3 mM); type: cell-based
[2] = compound: O=C(N[C@@H](CSCc1cc(=O)oc2cc(O)ccc12)C(=O)O)OCC1c2ccccc2-c2ccccc21; experiment: Non-competitive inhibition of human recombinant-Sialin expressed in HEK293 cells assessed as reduction in [3H]Neu5Ac uptake by measuring Km level at 3 uM incubated for 15 mins by liquid scintillation counting method (reference value: 1.4 +/- 0.5 mM)

B1: Sialin (Homo sapiens), Q9NRA2 (protein)
chain: MRSPVRDLARNDGEESTDRTPLLPGAPRAEAAPVCCSARYNLAILAFFGFFIVYALRVNLSVALVDMVDSNTTLEDNRTSKACPEHSAPIKVHHNQTGKKYQWDAETQGWILGSFFYGYIITQIPGGYVASKIGGKMLLGFGILGTAVLTLFTPIAADLGVGPLIVLRALEGLGEGVTFPAMHAMWSSWAPPLERSKLLSISYAGAQLGTVISLPLSGIICYYMNWTYVFYFFGTIGIFWFLLWIWLVSDTPQKHKRISHYEKEYILSSLRNQLSSQKSVPWVPILKSLPLWAIVVAHFSYNWTFYTLLTLLPTYMKEILRFNVQENGFLSSLPYLGSWLCMILSGQAADNLRAKWNFSTLCVRRIFSLIGMIGPAVFLVAAGFIGCDYSLAVAFLTISTTLGGFCSSGFSINHLDIAPSYAGILLGITNTFATIPGMVGPVIAKSLTPDNTVGEWQTVFYIAAAINVFGAIFFTLFAKGEVQNWALNDHHGHRH
- Km [1]: 1300 µM
- Km [2]: 1700 µM

— ChEMBL document CHEMBL4627406, “Amino Acids Bearing Aromatic or Heteroaromatic Substituents as a New Class of Ligands for the Lysosomal Sialic Acid Transporter Sialin” (J Med Chem, 2020)
